Values of other authors in publication PMC4449261.

Tests used:
IL-4Rα1 (Homo sapiens) = IL-4Rα1 (Homo sapiens) (UniProt P24394)
IL-13Rα1 (Homo sapiens) = IL-13Rα1 (Homo sapiens) (UniProt P78552)
UniProt P78552, sequence (P78552 22-343): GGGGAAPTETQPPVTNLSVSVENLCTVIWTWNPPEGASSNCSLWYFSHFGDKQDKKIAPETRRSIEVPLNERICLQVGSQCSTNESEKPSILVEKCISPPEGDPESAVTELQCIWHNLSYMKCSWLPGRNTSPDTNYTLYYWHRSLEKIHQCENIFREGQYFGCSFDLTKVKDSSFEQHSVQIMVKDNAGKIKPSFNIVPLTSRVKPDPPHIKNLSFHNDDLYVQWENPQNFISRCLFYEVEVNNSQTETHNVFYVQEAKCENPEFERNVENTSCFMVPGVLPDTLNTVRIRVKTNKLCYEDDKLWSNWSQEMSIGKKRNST

UniProt P24394, sequence (P24394 26-232): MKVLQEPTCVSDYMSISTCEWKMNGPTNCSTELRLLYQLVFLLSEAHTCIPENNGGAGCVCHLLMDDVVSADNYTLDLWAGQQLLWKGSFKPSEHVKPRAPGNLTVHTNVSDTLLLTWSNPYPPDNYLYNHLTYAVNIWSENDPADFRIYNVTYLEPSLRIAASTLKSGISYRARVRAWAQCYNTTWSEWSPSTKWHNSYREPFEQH

Kd (IL-4Rα1 (Homo sapiens)) [nM] | Kd (IL-13Rα1 (Homo sapiens)) [nM] | Substance
0.1 |  | IL-4 (from UniProt P05112)
 | 4 | IL-13 (from UniProt P35225)
